Changes are numbered by the printed parent chain. Like-named read-outs stand apart in the source and are kept apart here.
B1: h11-4-1 (antibody, human IgG1, kappa, V domains shown)
VH: QVQLVQSGAEVKKPGASVKVSCKASGYTFTSYWINWVRQAPGQGLEWMGNIYPSNSYTNYNQKFKDRVTMTRDTSTSTVYMELSSLRSEDTAVYYCARYRSDGFAYWGQGTLVTVSS
VL: EIVLTQSPATLSLSPGERATLSCRASQNIGTSIHWYQQKPGQAPRLLIYFASESISGIPARFSGSGSGTDFTLTISSLEPEDFAVYYCQQSNSWPFTFGGGTKVEIKR
notes: also called CDR grafted antibody 11-4
B2: h11-4-8 (antibody, human IgG1, kappa, name in Kabat numbering, V domains shown)
VH: B1 VH with Q1E, A97S, R98S
VL: B1 VL with Y49E
B3: h11-4-4 (antibody, human IgG1, kappa, V domains shown)
VH: B1 VH with Q1E, A97S, R98S
VL: B1 VL
B4: h11-4-7 (antibody, human IgG1, kappa, name in Kabat numbering, V domains shown)
VH: B1 VH with R98S
VL: B1 VL with Y49E
B5: h11-4-6 (antibody, human IgG1, kappa, name in Kabat numbering, V domains shown)
VH: B1 VH with A97S
VL: B1 VL with Y49E
B6: h11-4-5 (antibody, human IgG1, kappa, name in Kabat numbering, V domains shown)
VH: B1 VH
VL: B1 VL with Y49E
B7: h11-4-2 (antibody, human IgG1, kappa, V domains shown)
VH: B1 VH with A97S
VL: B1 VL
B8: h11-4-3 (antibody, human IgG1, kappa, V domains shown)
VH: B1 VH with R98S
VL: B1 VL
B9: h4-3-2 (antibody, human IgG1, kappa, V domains shown)
VH: EVQLVQSGPEVKKPGASVKVSCKASGFTFTDYVIGWVRQAPGQGLEWIGEIYLGSGTIYYAEKFKGRVTMTADTSTSTAYMELSSLRSEDTAVYYCARGSIFPFDYWGQGTLVTVSS
VL: DIQLTQSPSSLSASVGDRVTITCSASSSVSYMYWYQQKPGKAPKLLIYDTSTLASGVPSRFSGSGSGTDFTLTISSLQPEDFATYYCQQWSSYPYTFGQGTKLEIKR
B10: h4-3-9 (antibody, human IgG1, kappa, V domains shown)
VH: B9 VH with A61T
VL: B9 VL with T50A
B11: h4-3-19 (antibody, human IgG1, kappa, V domains shown)
VH: B9 VH with A61T, E62Q
VL: B9 VL with S91N
B12: h4-3-11 (antibody, human IgG1, kappa, V domains shown)
VH: B9 VH with A61T, E62Q
VL: B9 VL with T50A
B13: h4-3-15 (antibody, human IgG1, kappa, V domains shown)
VH: B9 VH with A61T, E62Q
VL: B9 VL with A54Q
B14: h4-3-17 (antibody, human IgG1, kappa, V domains shown)
VH: B9 VH with A61T
VL: B9 VL with S91N
B15: h4-3-10 (antibody, human IgG1, kappa, V domains shown)
VH: B9 VH
VL: B9 VL with T50A
B16: h4-3-7 (antibody, human IgG1, kappa, V domains shown)
VH: B9 VH with A61T, E62Q
VL: B9 VL with S24R
B17: h4-3-13 (antibody, human IgG1, kappa, V domains shown)
VH: B9 VH with A61T
VL: B9 VL with A54Q
B18: h4-3-5 (antibody, human IgG1, kappa, V domains shown)
VH: B9 VH with A61T
VL: B9 VL with S24R
B19: h4-3-12 (antibody, human IgG1, kappa, V domains shown)
VH: B9 VH with A61T, P103Y
VL: B9 VL with T50A
B20: h4-3-16 (antibody, human IgG1, kappa, V domains shown)
VH: B9 VH with A61T, P103Y
VL: B9 VL with A54Q
B21: h4-3-14 (antibody, human IgG1, kappa, V domains shown)
VH: B9 VH
VL: B9 VL with A54Q
B22: h4-3-18 (antibody, human IgG1, kappa, V domains shown)
VH: B9 VH
VL: B9 VL with S91N
B23: h4-3-4 (antibody, human IgG1, kappa, V domains shown)
VH: B9 VH with A61T, P103Y
VL: B9 VL
B24: h4-3-8 (antibody, human IgG1, kappa, V domains shown)
VH: B9 VH with A61T, P103Y
VL: B9 VL with S24R
B25: h4-3-20 (antibody, human IgG1, kappa, V domains shown)
VH: B9 VH with A61T, P103Y
VL: B9 VL with S91N
B26: h4-3-3 (antibody, human IgG1, kappa, V domains shown)
VH: B9 VH with A61T, E62Q
VL: B9 VL
B27: h4-3-6 (antibody, human IgG1, kappa, V domains shown)
VH: B9 VH
VL: B9 VL with S24R
B28: h23-12-40 (antibody, human IgG1, kappa, V domains shown)
VH: QVQLVQSGAEVKKPGASVKVSCKASGYTFTSYWMHWVRQAPGQGLEWMGEITPSDNYTSYAQKFKGRVTITRDTSTSTAYMELSSLRSEDTAVYYCARGHGNYVSFDYWGQGTLVTVSS
VL: DIQMTQSPSSLSASVGDRVTITCRASQDISNYLNWYQQKPGKAPKLLIYYTSRLHSGVPSRFSGSGSGTDFTLTISSLQPEDFATYFCQQYYTLPPYTFGQGTKLEIKR
B29: h23-12-44 (antibody, human IgG1, kappa, V domains shown)
VH: B28 VH with S54G, A61N
VL: B28 VL with Y91G, T93S
B30: h23-12-41 (antibody, human IgG1, kappa, V domains shown)
VH: B28 VH with A61N, H100E
VL: B28 VL
B31: h23-12-49 (antibody, human IgG1, kappa, V domains shown)
VH: B28 VH with A61N, H100Q
VL: B28 VL with Y91G, T93S
B32: h23-12-42 (antibody, human IgG1, kappa, V domains shown)
VH: B28 VH with A61N, H100Q
VL: B28 VL
B33: h23-12-46 (antibody, human IgG1, kappa, V domains shown)
VH: B28 VH with T58G, A61N
VL: B28 VL with Y91G, T93S
B34: h23-12-48 (antibody, human IgG1, kappa, V domains shown)
VH: B28 VH with A61N, H100E
VL: B28 VL with Y91G, T93S
B35: h23-12-45 (antibody, human IgG1, kappa, V domains shown)
VH: B28 VH with N56G, A61N
VL: B28 VL with Y91G, T93S
B36: h23-12-43 (antibody, human IgG1, kappa, V domains shown)
VH: B28 VH with A61N
VL: B28 VL with Y91G, T93S
B37: h23-12-47 (antibody, human IgG1, kappa, V domains shown)
VH: B28 VH
VL: B28 VL with Y91G, T93S

How the values were obtained:
Test in all cases: BLI, antibody on AHC sensor, Trop-2-his 60 nM
[1] = molecular target: T1, recombinant human Trop-2-his protein (ACCESSION NO.: NP_002344.2, AA 1-274) (human, UniProt P09758 27-274)
T1 construct: range 27-274; also called recombinant human Trop-2 protein; recombinant human Trop-2 extracellular domain; not shown: his tag
T1 sequence (looked up): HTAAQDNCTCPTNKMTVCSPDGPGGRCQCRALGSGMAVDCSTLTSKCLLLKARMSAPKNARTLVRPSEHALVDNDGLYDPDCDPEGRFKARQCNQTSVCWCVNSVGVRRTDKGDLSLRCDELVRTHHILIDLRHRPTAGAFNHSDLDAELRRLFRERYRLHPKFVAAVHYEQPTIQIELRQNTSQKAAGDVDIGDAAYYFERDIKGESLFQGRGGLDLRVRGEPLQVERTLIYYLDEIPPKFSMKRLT
Procedure: (§1) 5-6 days after cell transfection, culture supernatants were purified through ProA affinity chromatography column to obtain different humanized antibodies. Affinities of the obtained antibodies were determined by an assay including capturing Fc fragments of the antibodies with anti-human IgG Fc capture (AHC) biosensors using Octet QKe system instrument from Fortebio. For the assay, each of the humanized antibodies and control antibody Sacituzumab was diluted to 4 μg/ml in PBS, and was allowed to flow through the surface of an AHC biosensor (Cat.: 18-0015, PALL) for 120 s. Recombinant human Trop-2-his protein (ACCESSION NO.: NP_002344.2, AA 1-274) was used as a mobile phase, and its concentration was 60 nM. The binding time was 100 s and the dissociation time was 300 s. When the assay was finished, data from which the response values of blank control had been deducted were fitted to a 1:1 Langmuir binding model using software, and then kinetic constants for antigen-antibody binding were calculated.
Affinities of the antibodies obtained from the combinations of mutants of murine antibody 11-4, chimeric antibody ch11-4 and control antibody Sacituzumab to recombinant human Trop-2-his protein were determined by ForteBio (Table 11).

[2] = molecular target: T1, recombinant human Trop-2-his protein …; remark: listed apart in the source
Procedure: as §1
Affinities of the antibodies obtained from the combinations of mutants of murine antibody 23-12, chimeric antibody ch4-3 and control antibody Sacituzumab to recombinant human Trop-2-his protein were determined by ForteBio (Table 8).

[3] = molecular target: T1, recombinant human Trop-2-his protein …; remark: listed apart in the source
Procedure: as §1
Affinities of the antibodies obtained from the combinations of mutants of murine antibody 23-12, chimeric antibody ch23-12 and control antibody Sacituzumab to recombinant human Trop-2-his protein were determined by ForteBijo (Table 5).

| Binder | Kd [2] | further results |
| --- | --- | --- |
| B1 |  | Kd [1]: 2.16 nM |
| B2 |  | Kd [1]: 0.222 nM |
| B3 |  | Kd [1]: 0.811 nM |
| B4 |  | Kd [1]: 0.803 nM |
| B5 |  | Kd [1]: 0.952 nM |
| B6 |  | Kd [1]: 1.08 nM |
| B7 |  | Kd [1]: 0.991 nM |
| B8 |  | Kd [1]: 0.868 nM |
| B9 | 0.411 nM |  |
| B10 | 0.317 nM |  |
| B11 | 0.599 nM |  |
| B12 | 0.802 nM |  |
| B13 | 0.687 nM |  |
| B14 | 0.542 nM |  |
| B15 | 0.763 nM |  |
| B16 | 0.466 nM |  |
| B17 | 0.281 nM |  |
| B18 | 0.273 nM |  |
| B19 | 1.03 nM |  |

| Binder | Kd [2] | further results |
| --- | --- | --- |
| B20 | 1.53 nM |  |
| B21 | 0.571 nM |  |
| B22 | 0.671 nM |  |
| B23 | 0.636 nM |  |
| B24 | 0.862 nM |  |
| B25 | 0.892 nM |  |
| B26 | 0.501 nM |  |
| B27 | 0.397 nM |  |
| B28 |  | Kd [3]: 2.16 nM |
| B29 |  | Kd [3]: 0.717 nM |
| B30 |  | Kd [3]: 0.782 nM |
| B31 |  | Kd [3]: 2.99 nM |
| B32 |  | Kd [3]: 3.09 nM |
| B33 |  | Kd [3]: 0.312 nM |
| B34 |  | Kd [3]: 0.405 nM |
| B35 |  | Kd [3]: 4.09 nM |
| B36 |  | Kd [3]: 0.98 nM |
| B37 |  | Kd [3]: 2.31 nM |
